Source: patent US20130189283A1

Biological target: Kv1.3 voltage-gated potassium channel on T cells in human whole blood (human) (UniProt P22001)
Assay: cell-based or functional assay

Sequence of Kv1.3 voltage-gated potassium channel on T cells in human whole blood (human) (P22001 whole entry): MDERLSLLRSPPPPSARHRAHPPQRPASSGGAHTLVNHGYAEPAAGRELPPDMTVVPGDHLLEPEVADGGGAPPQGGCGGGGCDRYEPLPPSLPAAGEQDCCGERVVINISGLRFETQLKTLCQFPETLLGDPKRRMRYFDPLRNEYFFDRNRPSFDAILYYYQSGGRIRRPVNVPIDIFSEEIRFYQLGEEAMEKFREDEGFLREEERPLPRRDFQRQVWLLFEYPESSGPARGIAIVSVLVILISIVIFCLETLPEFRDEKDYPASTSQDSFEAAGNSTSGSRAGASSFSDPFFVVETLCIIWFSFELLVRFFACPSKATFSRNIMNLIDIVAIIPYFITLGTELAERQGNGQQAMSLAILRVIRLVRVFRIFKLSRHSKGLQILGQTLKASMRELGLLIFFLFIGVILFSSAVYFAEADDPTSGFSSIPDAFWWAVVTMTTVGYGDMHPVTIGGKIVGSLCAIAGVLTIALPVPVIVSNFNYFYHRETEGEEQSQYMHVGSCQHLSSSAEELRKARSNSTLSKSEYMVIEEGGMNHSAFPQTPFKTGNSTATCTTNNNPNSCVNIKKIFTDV

| Substance | Potency Relative to ShK (WB, IL2) | WB (IFNg) IC50 | WB (IL-2) IC50 |
| --- | --- | --- | --- |
| 20 kDa-PEG-ShK (peptide) | 5.67 fold | 840 pM | 380 pM |
| Monovalent Fc/Fc-L10-ShK[2-35] heterodimer (Fc fusion) | 32.1 fold | 5200 pM | 2150 pM |
| ShK(1-35) (peptide) | 1 fold | 78 pM | 67 pM |
